Results on one molecule are retold here after patent publication US20140271639A1, “Semaphorin 7a Induced Lung Fibrogenesis Occurs in a CD-4-Dependent, Macrophage Dependent Manner” (YALE UNIVERSITY, priority 2011, published 2014).

The subject of this experiment is CD14+ monocytes. The experiment can be described thus: Sema 7a stimulation of CD14+ monocytes; CD206 expression via flow cytometry. In kind it is cell-based, human. The method, then: Antibodies against mouse F4/80, CD11b, and CD11c, and against human CD4, CD8, and CD14 were purchased from BD Pharmingen. CD206 antibody was purchased from Serotec. Semaphorin 7a antibody was obtained from R & D Systems. Appropriate isotype controls were obtained from BD Pharmingen. Flow cytometry and cell sorting were performed using a BD FACSCalibur. Data were analyzed using Flow Jo v 7.5 software (Tree Star, Inc, Ashland, Oreg.). For all analyses, isotype control staining was subtracted from true antibody staining to determine the percentage of positive cells. When necessary this percentage was then multiplied by the total cell count in the sample to derive absolute quantity of the cell population of interest.
Ficoll separation and processing of PBMCs for FACS was performed as we have previously described (Gan et al., 2011, Arthritis Rgeum. 63:2484-2494).
CD14+ monocytes were obtained via MACS-enrichment as have been previously described. These cells were stimulated with recombinant Sema 7a (Abnova, Taiwan) or human serum albumin (Sigma) as previously described (Gan et al., 2011, Arthritis Rgeum. 63:2484-2494). Lentivirally-mediated shRNA knockdown of Plexin C1 expression was performed using specific anti-Plexin shRNA or control “scramble” shRNA (Santa Cruz Biotech, Santa Cruz […].) as previously described (Gan et al., 2011, Arthritis Rgeum. 63:2484-2494).

B1: recombinant Sema 7a protein: recombinant Sema 7a (Abnova, Taiwan) used to stimulate CD14+ monocytes (protein, UniProt O75326 45-648, looked up)
Semaphorin-7A: QGHLRSGPRIFAVWKGHVGQDRVDFGQTEPHTVLFHEPGSSSVWVGGRGKVYLFDFPEGKNASVRTVNIGSTKGSCLDKRDCENYITLLERRSEGLLACGTNARHPSCWNLVNGTVVPLGEMRGYAPFSPDENSLVLFEGDEVYSTIRKQEYNGKIPRFRRIRGESELYTSDTVMQNPQFIKATIVHQDQAYDDKIYYFFREDNPDKNPEAPLNVSRVAQLCRGDQGGESSLSVSKWNTFLKAMLVCSDAATNKNFNRLQDVFLLPDPSGQWRDTRVYGVFSNPWNYSAVCVYSLGDIDKVFRTSSLKGYHSSLPNPRPGKCLPDQQPIPTETFQVADRHPEVAQRVEPMGPLKTPLFHSKYHYQKVAVHRMQASHGETFHVLYLTTDRGTIHKVVEPGEQEHSFAFNIMEIQPFRRAAAIQTMSLDAERRKLYVSSQWEVSQVPLDLCEVYGGGCHGCLMSRDPYCGWDQGRCISIYSSERSVLQSINPAEPHKECPNPKPDKAPLQKVSLAPNSRYYLSCPMESRHATYSWRHKENVEQSCEPGHQSPNCILFIENLTAQQYGHYFCEAQEGSYFREAQHWQLLPEDGIMAEHLLGHACALA
Consider B1, for which, under “IPF monocytes, p=0.16, FIGS. 6A and 6B”, the “response to Sema 7a stimulation (cell surface expression of CD206)” value is recorded as “failed to respond”. Also, where the note is “normal human monocytes, p=0.04, FIGS. 6A and 6B”, the “increase in cell surface expression of CD206” value turned out to be 94.3%.
